Data set [1] has as its target T1, AppC, subunit of Escherichia coli cytochrome bd-II oxidase (E. coli, UniProt P26459 1-514).
T1 construct: AppC, cytochrome bd-II oxidase subunit, E. coli; predicted molecular mass 58.1 kDa; gene amplified from genomic DNA of strain BW25113; also called AppChis
T1 sequence: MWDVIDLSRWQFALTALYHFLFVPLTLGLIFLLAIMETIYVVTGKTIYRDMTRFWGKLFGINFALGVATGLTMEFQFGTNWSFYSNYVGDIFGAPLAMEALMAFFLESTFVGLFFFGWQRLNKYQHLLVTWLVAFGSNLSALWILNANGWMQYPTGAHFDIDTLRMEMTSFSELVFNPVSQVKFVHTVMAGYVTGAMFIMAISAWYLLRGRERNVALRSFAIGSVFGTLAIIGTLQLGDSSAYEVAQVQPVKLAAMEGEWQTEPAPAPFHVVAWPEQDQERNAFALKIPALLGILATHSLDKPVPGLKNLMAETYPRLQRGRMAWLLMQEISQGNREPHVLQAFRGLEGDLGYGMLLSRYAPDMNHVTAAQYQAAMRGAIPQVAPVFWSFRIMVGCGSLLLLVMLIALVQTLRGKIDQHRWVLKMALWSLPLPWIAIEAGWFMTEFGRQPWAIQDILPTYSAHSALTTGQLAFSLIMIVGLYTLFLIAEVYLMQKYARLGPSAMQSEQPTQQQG
In words: cryo-EM structure; bd-II in amphipol A8-35, 5.6 mg/mL, incubated with aurachin D; 20 mM MOPS, 20 mM NaCl, pH 7.0; C2 symmetry imposed; 3.0 Å. As to conditions: both partners purified.

Data set [2] deals with the molecule itself. Described as above.

B1: AppB, subunit of Escherichia coli cytochrome bd-II oxidase (natural protein)
chain: not shown
notes: AppB, cytochrome bd-II oxidase subunit, E. coli; predicted molecular mass 42.4 kDa; gene amplified from genomic DNA of strain BW25113
Consider B1, for which, in data set [1], the binding result is “binds”.

B2: AppX, single helix subunit of Escherichia coli cytochrome bd-II oxidase (natural protein, E. coli)
chain: MWYLLWFVGILLMCSLSTLVLVWLDPRLKS
notes: AppX, cytochrome bd-II oxidase subunit, E. coli; length of 30 amino acid residues; predicted molecular mass 3.6 kDa; gene amplified from genomic DNA of strain BW25113
As for B2, the binding result in data set [2] and in data set [1] was “binds” each time.

These data come from PMC8585947, “Structure of Escherichia coli cytochrome bd-II type oxidase with bound aurachin D” (Nature Communications, 2021).
